# Assay: soluble on expression in E. coli; label from the status in PepcDB or PDB records
row,Sequence,soluble on expression in E. coli
1,MDYRVLLYYKYVTIDDPETFAAEHLKFCKEHHLKGRILVSTEGINGTLSGTKEDTDKYIEHMHADNRFADLTFKIDEAESHAFKKMHVRPRREIVALDLEEDINPREITGKYYSPKEFKAALEDENTVILDARNDYEYDLGHFRGAIRPDITRFRDLPEWVRNNKEQLDGKNIVTYCTGGIRCEKFSGWLVKEGFENVGQLHGGIATYGKDPETKGQYWDGKMYVFDERISVDVNQIDKTVIGKEHFDGTPCERYINCANPECNKQILVSEENEEKYLGACSYDCAKHERNRYVARHHISNEEWQRRLNNFKDVPEHTHALEHHHHHH,soluble
2,MHRLKYLTGYPPQLTAQVAHLVTENRLGEVLVQRYPTVHDVRTDRALYDFTVAVKNEFMRTAQPLSRVLYDGKIHAIKNALGTHTFVSRVQGGKLKAKHEIRIASIFREAPLEFLKMIVVHELAHLKEKEHNKAFYQLCEYMEPRYHQLEFDTRLFLTQVEIAGSPYLPLEHHHHHH,soluble
3,MSLDNSRTRPRVGHIQFLNCLPLYWGLARTGTLLDFELTKDTPEKLSEQLVRGDLDIGPVTLVEFLKNADDLVAFPDIAVGCDGPVMSCVIVSQVPLDRLDGARVALGSTSRTSVRLAQLLLSERFGVQPDYYTCPPDLSLMMQEADAAVLIGDAALRANMIDGPRYGLDVHDLGALWKEWTGLPFVFAVWAARRDYAEREPVITRKVHEAFLASRNLSLEEVEKVAEQAARWEAFDEDTLAKYFTTLDFRFGAPQLEAVTEFARRVGPTTGFPADVKVELLKPEGHHHHHH,soluble
4,MAHHHHHHMADSIKSSNSFQKLDNIDAKETSTVDRKWVALTAYQPVDVVTKTVEVPIIKTVEKYVPKTIIQEKIIHVPKNVTHIVEKIVEVPEVKYIEKIVEVPHIHYKNKYVPKIEIVEKVVERQKIIEKWHDKIVEVPQIKEVVRFKQIEDSEEIIKYVPRNSKNIDWEDEYKKYTESKGLQRYSLDQNNIYQQANSFNQFNENAYNQNAFNRSYELLNKQSSVKSQNNASGENFSQMNFYNQYSGANFEQERSIQASNFEPSGSMQLKRLSSEEIKPAGCCSAACT,soluble
5,MAHHHHHHMVNLRLQVAVVGAPTVGKTAFVQMLHSNGTTFPKNYLMTLGCDFIVKEVPVDDDNTVEMIIFDVSGQREYEPMVSSYLQNTAVFIVMYDVSNKVTFEACARWVNQVRTNSKESVGILIANKSDLSDKAEVTDRQGKDLANANKMKFYKISTLRGVGITEPIDEIARHYVDAYQKRIEQLTQMR,not soluble
6,MVELFGAVLLLFGLSDLLFRFLGLGAYAHGSRREPKVALTFDDGPSERTEALLALLARHGVKATFFLTGEKARARPDLVEAIKRAGHQVEDHGEWHRPLWLFLPWVEWRHMAQNPGRYYRPPYGLHTPFTRLFARLLGKRVVLWDLESKDWLNLPPEELAERLLFYLRPGSIVLFHDGPERTLRLLGAGPAGDAPPGVPAHHPGRPRPFAPHPEARPHPGPPGV,soluble
7,MSLFHREDFSKALLKKALQPGMRVMDIGCGSGELTRLAADIVGKEGDVVGIDINEQLLWQARHDNGYANVSYQNADLAALSSFETKSFDAIIGRRVLMYQKDPKKVIESLTPLLKPNGFYVFQESDAMCLELAKPSFVNMNKIQSLIWQTVEKEGGHIHIGSQLEQLMLEAGLIVDHFVSENVIQTSQTGTDLSWLLNIMKERIQKYSDLQGLEDVNLQKELEENNDHFIRDCQFGIISHRVDEGHHHHHH,soluble
8,MGHHHHHHSHMNDSDSTPPKKKMRKTENGMYACDLCDKIFQKSSSLLRHKYEHTGKRPHECGICKKAFKHKHHLIEHMRLHSGEKPYQCDKCGKRFSHSGSYSQHMNHRYSYCKREAEERDSTEQEEAGPEILSNEHVGARASP,soluble
9,MSLKRISIKDVALKAGVSIASVSYVLNNKIDSRIPQETIDKVKHAAEELNYRPNNIAKSLKTQRTHIIGLVVADIANPYFSQLARIIEDEANKLGYTLMIGSSDENAEKFEALINMFADRQADGLIIAPVENSEKCLLKLQKQKIPFVLIDRYLSGVEADSIQINNYDISQKVTEHLINGGYKNTLLVAYKTQLQHLLQRTQAFLNTLEKHQIQNSQVLLADKDYIDRDINTGLENMLQNAVKPDAIFFTSNKLAVSGLKKLTQLGINIPQDIAVAAFDETEAYELFPVPLTYVKQPLSAIGTTAVKMLNEKINIKNLPLQNVTLHAELHIGQSTKSKEGHHHHHH,soluble
10,MAGDKGGGDGERRLRQPIVVVLGHVDHGKTTLLDKIRRTAVAAKEAGGITQHIGASIVPADVIEKIAEPLKKVIPVKLVIPGLLFIDTPGHELFSNLRRRGGSVADFAILVVDIMEGFKPQTYEALELLKERRVPFLIAANKIDRIPGWKPNPDAPFIETIRRQDPKVREILEQRVYEIVGKMYEAGLPAELFTRIKDFRRKIAIVPVSARTGEGIPELLAVLAGLTQTYLKERLRYAEGPAKGVVLEVKEMQGFGTVVDAVIYDGVLKKEDIIVVGGREGPIVTRVRALLMPAPLQDIRSREARFVQVDRVYAAAGVRIAAPGLDDVIAGSPIYAAESEEEARKLMEAVQREIEELRFRTENIGVVVKADTLGTLEALVEALRRRGVPVRLADIGPVSRSDVLDAAVTRKIDPYLGVVLAFNVKVLPEAEEEASRAGVKIFRESMIYKLIEDYEEWVKKEKEAERLKALNSLIRPGKFRILPGYVFRRSDPAIVGVEVLGGVIRPGYPVMDSQGRELGRIMAIKDRDRSLEEARLGAAVAVSIQGRILIGRHANEGDILYTNVPAQHAYKILTEFKDLVSKDELDVLREIAEIKRRAADHEYNKVLLRLKIKRVSQ,soluble
11,MSLVPARVFSCTILVDFQTEDQDTMCNLLRVQWTITPRTAPQPWLACNGCGDLRAFQASDKIRLNANGRKLDAWLIYRCLICDKSWNRPIFERQNVCDISPPVLEALQCNDPQWIRAETFNLEALRRKSQRIDEFPDFDIEKRIRDEPTDWAAAEIDLTVPFPASIRLDRLLASELGLSRSMLQKLHDGGQIRAQSDLLRRRLRNGTRIVIECGDGLDRERFWKPAVRGLEGHHHHHH,not soluble
12,MEVLLTETFYTIGRSPRADIRIKSQFVSRIHAVLVRKSSDDVQAAYRIIDGDEDGQSSVNGLMINGKKVQEHIIQTGDEIVMGPQVSVRYEYRRRDQFGTMLEHHHHHH,not soluble
13,MSLAKPKVIVPMVTPLRGGSVDKNAASWLASRLSESGVDGVFVPGTTGEWYLLDPHERAEAFFAVASSAIAGLRLVAGVSGYRPEESYRLAEEAAGHGAHAVMAVPPIYFRPSTDFLREFYGEIKRRAGGLPTYIYIFPERMGYTLAVEQVESLVEAGVVDGIKATVTDAAYIAGLAAVKERNPEFEVLAGGLEMLVHTSLSGGDGVVDAYSNVAPKLAVELAESLEKGSVERVAGLQGRVLKLSRILGKRSLPAVLKAVLHVLGAPITGEVRKPLKPLTQPEANATANALCTSYRDYLLPGEGHHHHHH,soluble
14,MGSDKIHHHHHHMTGEKVHLTGAKETLLMTLYGKALESRLPHSLLGDHFADEAVRKIDYDFSRLKVDENLGIGLAIRAKTLDVRVEDFLARNPGAIVLHLGCGLDTRVFRVDPPPGVDWFDADYPQVIELRRKLYPPRDHYHLIASSVTEPGWLAEVPRNRPAMVVAEGLTPYLPADEGLRLVSRLVSHLAGGELMFDAYSRFGLTLLRLSPTIKATGAEVHWAIDDPHELELAVPKLRFVEDISAYMPEHAARMGWSAKLFVRLWKHIPALRKVGRLLRYRF,not soluble
15,MELPPKVKNILLLDSEGKRVAVKYYSDDWPTNSAQEAFEKSVFTKTQKTNARTEVEVTALENNIVVYKFVQDLHFFVTGGEEENELILASVLEGLFDAVTLLLRSNVDKREALDNLDLIFLSFDEIIDGGIVLETDANVIAGKAGINSTDPNAPLSEQTISQALATAREHLTRSLMK,soluble
16,MKYTLDQLNVYNPDGKAKSISIIHGLTISTSNTNSDTTGLTGCLYLTTKNQANDPSFSVYVIKQAQTVSTTQPNSTVVILNTELNPDISNYDQPLKTSYVTNINQSPDSDLFFQWDIPASGWTQKDVTNQFFENPIILETFDWNTMKKNFTRQFFDHIEPLQIGVKYWYFTASKPVSMTMESKYVSNLMYTATSVNTTGLIVNDFVFLEHVVNFPLDLTRVRTIGTLISAFPESSTINFVYKDDQSSSRQSFSTEQTHSLFDTYMQASSLTINATALIPGRFFCQYFGVTGDLLPPGTSTPSTPSTVETTMPSTTRISTTPSAAPHEFQLICFIIAFLLVL,not soluble
17,MGSDKIHHHHHHMSKPAITLWSDAHFFSPYVLSAWVALQEKGLSFHIKTIDLDSGEHLQPTWQGYGQTRRVPLLQIDDFELSESSAIAEYLEDRFAPPTWERIYPLDLENRARARQIQAWLRSDLMPIREERPTDVVFAGAKKAPLTAEGKASAEKLFAMAEHLLVLGQPNLFGEWCIADTDLALMINRLVLHGDEVPERLVDYATFQWQRASVQRFIALSAKQSG,not soluble
18,MSDALVWQVIRNNSAFLRTQRGIGKRFSTEKFNLKKVNSPKYSGLANKHAIDVSAAAKGVVVSTKNEKGRPAKAVTTSTLSKTPVASVRRLAKNAGFNKFNKLAQRRAAAIVRSQVKKAKVQKTDA,not soluble
19,MAHHHHHHMKEKYTITPLARRTPNGVLTQVLTEARREAAERLRGMQEMKFTICTDIEEVLFKGRVHVNEMRLNDFLTREPDGRGVVDTNRDVLLEEFFKDPTKYIRDKGALNEIQAFGHYLSMKRAVKGEVIFDEDIRELCDRVSTTYRGGHWLLRR,not soluble
20,MYPHIHRYKFESKNTNRHNHKIIGYTDNMIGIEAFHIHAYYGISSYNGHTHYFSGFTGLPIKTENGHIHRIEGILESASDHEHVYRNYTDENIEYISHSILKHAYV,not soluble
21,MGSDKIHHHHHHMIPISLIQETAEGLMDKAAIEIPQDYLDGLQEAARTEDGDLSSFVLKAMLDNYEAAKEDRRAMCGDTGVPRWFVKMGNDASVEGGMVALEAALRRATANATNGVPLRPNRVHPLWRTDHNNNVGIGAPEIEYGFEPEGEWIDLITVHKGGLFGTDYRMLFPSDGLQGIKRFYLDSLMAFGKRGLACQPAIIGIGLGGSKDICMTLGKRASTLRVVGSRNSDPRIAEMEDEFKALGNSIGMGAMGFVGKNMVIDCNIEVGYCHTGGLPMSVHAFCLSSRRAVARIHADGRVEHRTDPDWFTDYQRRETIDWPLAQEAAE,not soluble
22,MVTIANDFLTVKISRHGAELTSIKDNLTGRERLWQADPAVWGRHAPVLFPIVGALADNQYHYAGKTYHMGQHGFARDRDFTVLSATPFKASFVLKDDDKTRAMYPFAFRLIITFALENNNLHVTYHVDNPDKSEPLFFSIGGHPGFKVPMTPDTQFSDYYLNFKPRKSLVQIPLVAGEGIDYTHRTLAATDANLALTHETFDHDALIFALLGKTTFNLVSDKTKHGVSVTMTDTPYLGVWSPYPTTGDFVCIEPWWGIADTIGSTGDLTRKLGINRLEPGTAFEKGYMISIFLEHHHHHH,not soluble
23,MSLKNNSEVFNVLHFSDIHIQLRYNVGAEANCTNLPCGAPDSYNKQLLPSSYNFSSYYQHFSPNVAKMEFSFYPDAHYDENSQYIKGDYYDFPLYRGWNFKNAPATSFGGYLTDSPAVLMNSSLISMAKMHKEKNFEFAIFTGDVVDHLLLSCTPEYTKEEEVKSFKAMKFFFNNLTVLPALGNHETGEYGQLSPIAYDFNGSYSWNQDEMVDLWINNEWFPAKDRYDLKSHYAGFSYVTNRGLKVIGLNSNAYYQKNLWSYIDLSTNPDLFGQWEFLVNELIESEEKGQRVWIMAHIPTTDYDTLPLQSRIFGKIVERFSPYTIANIFFAHTHMDQTHILYSTNSSKEAEDIINMSWVMQSVTPLANYNPSWRYYEVENESFNIINSFNYMTKLNDTEGHHHHHH,soluble
